In publication PMC9105653, “Zinc and Copper Ions Induce Aggregation of Human β-Crystallins” (Molecules, 2022):

B1: human βB2-crystallin (HβB2) (natural protein)
chain: ASDHQTQAGKPQSLNPKIIIFEQENFQGHSHELNGPCPNLKETGVEKAGSVLVQAGPWVGYEQANCKGEQFVFEKGEYPRWDSWTSSRRTDSLSSLRPIKVDSQEHKIILYENPNFTGKKMEIIDDDVPSFHAHGYQEKVSSVRVQSGTWVGYQYPGYRGLQYLLEKGDYKDSSDFGAPHPQVQSVRRIRDMQWHQRGAFHPSN
notes: human beta-crystallin B2; printed length 205 residues; source: E. coli BL21-RIL, purified (HisTrap, SUMO protease Ulp1 cleavage, second HisTrap, Q-Sepharose)
B2: human βA1-crystallin (HβA1) (natural protein, UniProt P05813-2 1-198, looked up)
chain: MAQTNPTPGSLGPWKITIYDQENFQGKRMEFTSSCPNVSERSFDNVRSLKVESGAWIGYEHTSFCGQQFILERGEYPRWDAWSGSNAYHIERLMSFRPICSANHKESKMTIFEKENFIGRQWEISDDYPSLQAMGWFNNEVGSMKIQSGAWVCYQYPGYRGYQYILECDHHGGDYKHWREWGSHAQTSQIQSIRRIQQ
notes: human beta-crystallin A1, the shorter product of the gene CRYBA1 (made with betaA3 from the same gene by leaky ribosomal scanning); printed length 198 residues; source: E. coli BL21-RIL, purified (HisTrap, SUMO protease Ulp1 cleavage, second HisTrap, Q-Sepharose)

Target: the molecule itself
Assay: dynamic light scattering; 50 µM protein in 10 mM Hepes pH 8.0, 100 mM NaCl (buffer B), without metal ions; apparent RH compared with the RH predicted (HullRad) from face-en-face dimer models

| Protein | stoichiometry N |
| --- | --- |
| B1 | 2 |
| B2 | 2 |
